Data from patent US9932382B2, “Kv2.1 channel-derived peptides and methods of use” (University of Pittsburgh—Of the Commonwealth System of …, priority 2014, dated 2018).

B1: C1a: rat Kv2.1 C1a peptide, residues 411-522 of SEQ ID NO: 3, expressed from a plasmid (protein, listed as Rattus norvegicus)
chain: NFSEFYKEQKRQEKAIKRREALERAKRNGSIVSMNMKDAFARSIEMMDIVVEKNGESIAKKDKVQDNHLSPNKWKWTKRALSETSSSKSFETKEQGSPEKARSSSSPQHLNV
B2: C1a441-522: distal segment of C1a, residues 441-522 of rat Kv2.1 (protein, UniProt P15387 441-522, looked up, fragment)
chain: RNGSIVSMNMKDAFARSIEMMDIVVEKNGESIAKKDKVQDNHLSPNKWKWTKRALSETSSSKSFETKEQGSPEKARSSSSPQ

Assays:
Kv2.1/syntaxin binding = target: T1, Kv2.1/syntaxin binding (Homo sapiens, UniProt Q16623); assay: Co-immunoprecipitation of Kv2.1 with syntaxin from transfected CHO cells; type: cell-based; conditions: for effect on Kv2.1/syntaxin binding (co-immunoprecipitation): syntaxin-expressing CHO cells co-transfected with Kv2.1 and peptide plasmid, syntaxin immunoprecipitates probed for Kv2.1
T1 construct: expressed in transfected cells; host or cells: CHO cells
Description: For electrophysiological experiments, mixed cortical neuronal/glial cultures were prepared from embryonic day 16 (E16) Sprague-Dawley rats (Charles River Laboratories, Wilmington, Mass., USA). Donor rats were euthanized by gradual CO2 exposure. Cortices were dissociated with trypsin, and the resultant cell suspension, adjusted to 670,000 cells per well, was plated on glass coverslips in 6-well plates as described previously (Hartnett et al., J Neurochem 68, 1836-1845, 1997). Non-neuronal cell proliferation was inhibited after two weeks in culture with 1-2 μM cytosine arabinoside, and cultures utilized at three to four weeks in vitro. For neuronal transfection, cells were treated for five hours in serum-free medium with 2 μL LIPOFECTAMINE™ 2000 (Invitrogen, Carlsbad, Calif.), 50 μL Optimem (GIBCO, Grand Island, N.Y.), and 1.5 μg DNA per well. For CHO cell transfections, cells were plated on coverslips in 24-well plates at a density of 5.6×10^4 cells per well for electrophysiological measurements or in 100 mm dishes at a density of 1.7×10^6 cells per dish for biochemical studies. Cells were treated for 3-4 hours in serum-free medium with a total of 1.2 μL LIPOFECTAMINE™ and 0.28 μg DNA per well for electrophysiology, or 55.1 μL LIPOFECTAMINE™ and 7.33 μg DNA per dish for biochemistry. Following transfection, cells were maintained in F12 medium containing fetal bovine serum at 37° C., 5% CO2 for 24 hours prior to experimentation.
Protein was harvested by washing cell culture dishes with ice cold PBS followed by a short incubation with 1% 3-[(3-cholamidopropyl) dimethylammonio]-1-propanesulfonate buffer. Protein A/G agarose bead slurry (Santa Cruz, Dallas, Tex.) was added to the samples and rocked at 4° C. for 1 hour in order to pre-clear non-specific protein binding. Samples were then incubated overnight at 4° C. with the appropriate immunoprecipitating antibodies. Following another incubation with the bead slurry, the protein samples were prepared/denatured by the addition of sample preparation buffer (625 mM Tris, 25% glycerol, 2% sodium dodecyl sulfate (SDS), 0.01% bromophenol blue and 5% β-mercaptoethanol) and heated at 95° C. for 5 min prior to SDS polyacrylamide gel electrophoresis and immunoblotting.
Protein samples from equal amounts of cell lysate were separated on 10% sodium dodecyl sulfate SDS polyacrylamide gels by electrophoresis using the Mini Protean 3 System (Bio-Rad, Hercules, Calif.). Separated protein bands were transferred onto 0.2 μm nitrocellulose membranes (Bio-Rad), blocked with 1% bovine serum albumin (BSA) in PBS with 0.05% Tween 20 (PBST) at room temperature for 1 hour, and probed with appropriate primary antibodies diluted in PBST. Blots were then incubated with infrared fluorescent goat secondary antibodies at room temperature for 1 hour, visualized using the Odyssey Imaging System (LI-COR Biosciences, Lincoln, Nebr.), and quantified using infrared fluorimetry.
After establishing that C1a effectively precluded the oxidant-induced K^+ current increase in neurons, studies were performed to identify the sub-domains within C1a that could retain the ability to disrupt Kv2.1/syntaxin binding. C1a was divided into overlapping proximal and distal segments, hereafter referred to as C1a411-472 and C1a441-522, respectively. Co-immunoprecipitation experiments were performed to compare the ability of C1a and the smaller segments to displace Kv2.1 from syntaxin. Syntaxin immunoprecipitates of protein samples obtained from CHO cells transfected with a syntaxin-expressing plasmid, and co-transfected with Kv2.1 together with C1a, C1a411-472, or C1a441-522, were probed for Kv2.1.

Kv2.1S800E = assay: Whole-cell K+ current densities in CHO cells expressing Kv2.1S800E; type: cell-based; conditions: CHO cells co-transfected with Kv2.1S800E and peptide plasmid
Description: For electrophysiological experiments, mixed cortical neuronal/glial cultures were prepared from embryonic day 16 (E16) Sprague-Dawley rats (Charles River Laboratories, Wilmington, Mass., USA). Donor rats were euthanized by gradual CO2 exposure. Cortices were dissociated with trypsin, and the resultant cell suspension, adjusted to 670,000 cells per well, was plated on glass coverslips in 6-well plates as described previously (Hartnett et al., J Neurochem 68, 1836-1845, 1997). Non-neuronal cell proliferation was inhibited after two weeks in culture with 1-2 μM cytosine arabinoside, and cultures utilized at three to four weeks in vitro. […]
Current recordings were performed on eGFP-positive co-transfected neurons or CHO cells using the whole-cell patch clamp configuration technique as described previously (McLaughlin et al., J Neurosci 21, 3303-3311, 2001). […] To determine current density values, steady-state current amplitudes were measured 180 msec after the initiation of the +10 mV step and normalized to cell capacitance. […] By repeatedly adjusting the scaling factor k, an automated binary search algorithm determined threshold synaptic conductance (thresh-gsyn), the conductance required to reach firing threshold (Kullmann et al., J Neurophysiol 91, 542-54, 2004). […]

T1 sequence (Q16623 whole entry): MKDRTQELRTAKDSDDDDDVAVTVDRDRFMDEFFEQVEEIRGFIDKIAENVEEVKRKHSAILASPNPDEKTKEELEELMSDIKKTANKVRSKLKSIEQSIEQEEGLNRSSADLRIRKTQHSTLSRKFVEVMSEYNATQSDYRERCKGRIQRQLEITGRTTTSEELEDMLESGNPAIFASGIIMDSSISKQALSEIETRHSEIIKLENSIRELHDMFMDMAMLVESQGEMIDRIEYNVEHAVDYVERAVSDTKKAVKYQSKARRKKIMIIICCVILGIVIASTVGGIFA

Row | Molecule | effect on Kv2.1/syntaxin binding (co-immunoprecipitation) (Kv2.1/syntaxin binding) | effect on enhanced K+ currents of Kv2.1S800E (Kv2.1S800E) | ability to displace Kv2.1 from syntaxin with Src kinase overexpression (Kv2.1/syntaxin binding; CHO cells co-transfected with Kv2.1 and Src)
1 | B1 | inhibited Kv2.1/syntaxin binding | suppressed the enhanced K^+ currents | 
2 | B2 | inhibited Kv2.1/syntaxin binding | blocked the increase in currents | retained the ability to displace Kv2.1 from syntaxin
